Results published in the supplement of paper PMC9170038.

Test system: MS2 coat protein
Assay: apparent KD of MS2 coat protein; designed switch direction (-1 OFF switch, 1 ON switch): 1; higher = weaker reporter binding
In short: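 Apparent KD, taken as the median over clusters for each design, was obtained by curve-fitting normalised cluster fluorescence. Designed RNA switches had been transcribed on Illumina chips by stalled E. coli RNA polymerase and titrated with SNAP-549-labelled MS2 coat protein, doubling from 0.7 or 1.5 nM to 3 µM.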

[1] = input ligand: microRNA oligo, concentration not stated
[2] = Eterna round: R95, input ligand: FMN 200 uM
[3] = Eterna round: R95, input ligand: microRNA oligo, concentration not stated
[4] = Eterna round: R95, input ligand: none

Sequence	apparent KD of MS2 coat protein (input ligand: FMN 200 uM)	apparent KD of MS2 coat protein [1]	apparent KD of MS2 coat protein (input ligand: none)	apparent KD of MS2 coat protein [2]	apparent KD of MS2 coat protein [3]	apparent KD of MS2 coat protein [4]
UGUCGUUGCAGAGGAUAUGGGAACUCGAUGCCGUAAGGUAUCAUAACAUGAGGAUCACCCAUGUCCCAGAAGGCUGCAGCAAGC [Leatve Mod] (Eterna round: R96, puzzle: Same State NG 2)	29.7 nM	94 nM	235 nM	–	–	–
GAGGAUGAUUUACAGGAUAUAUAGGAGAUGACAUGAGGAUCACCCAUGUAGGAGAUAGGAGUGAGAUAGAAGGGUAAGUGAUGUG [JR_SS2_Sub43] (puzzle: Same State 2)	–	–	–	58.9 nM	122 nM	114 nM
UCAAGCGAGAGGCUCGUCUUAUGUAAGGUACAUGAGGAUCACCCAUGUGAGGGACGAUUGAGUUAGAUGGAAUGGAG [JR_SHM208A_Sub033] (puzzle: Sensor for hsa-mir-208a)	–	–	–	42.3 nM	121 nM	50.9 nM
CGAUGAUACUCAGGAAGGAGAGUAGAGGAACAUGAGGAUCACCCAUGUAUGAGCUUUUUGCUCGUCAUGAACAGGAG [JR_SHM208a_Sub009] (puzzle: Sensor for hsa-mir-208a)	–	–	–	107 nM	64.4 nM	111 nM
AAGAUGCUCGUAGGAUAUUGGAAAGGAAGUGUACAAGAAGGACGGUGUCACAUGAGGAUCACCCAUGUUACAGUCUAAUGACUG [PowerStrip SSNG 1.1] (Eterna round: R96, puzzle: Same State NG 1)	18.7 nM	53.5 nM	61.4 nM	–	–	–
UUCUCUCUGGUAGGAUAUGUAGGAUAUGUACAUGAGGAUCACCCAUGUCAGUUAAUGACAGAAGGAUAGAAGGACCAGAUCUCU [pwkr ssNG2 2FMN 1F5s.2] (Eterna round: R96, puzzle: Same State NG 2)	115 nM	72.4 nM	127 nM	–	–	–
GGAAAGAGGUCAGGAUAUGAAUGGUUGGGACAUGAGGAUCACCCAUGUAAUAGAAGAAAUCUACAUUAGAAGGGACAAGGAAGG [AK SSNG2-V2-5.1] (Eterna round: R96, puzzle: Same State NG 2)	129 nM	116 nM	212 nM	–	–	–
AAGCCUGUAGCACAGGAUAUCCGAGGCAAAACAUGAGGAUCACCCAUGUCAAACGAAAAUCCGAAGGAGAAGGGUGAACAGGCUC [Laarededqu] (puzzle: Same State 2)	–	–	–	10.9 nM	7.83 nM	8.24 nM
AAAUAAUAGGCAGGAUAUGGGAAAGGAAGUGUACCAGAAGGGCCGCAACUCAAUACAACAUGAGGAUCACCCAUGUUAGUGUCG [PowerStrip SSNG 1.5] (Eterna round: R96, puzzle: Same State NG 1)	10.2 nM	14.9 nM	15.7 nM	–	–	–
GAGUCAGAUCGAGGAUAUUUGUUAUGACGAUCCCACAUGAGGAUCACCCAUGUCCACGAUCCUCCAAAGAAGGUGAGGCUGGCG [Eternabot solution 32] (Eterna round: R96, puzzle: Same State NG 2)	202 nM	39.6 nM	88.2 nM	–	–	–
UAUAAACAUGAGGAUCACCCAUGUAAUAAUAUGGGAGGAUAUCAGAAUUUAUUUAUUUAAUGAGAAGGCCUAAUAU [Mat - Same State 1 - Mod of Eli - D67] (puzzle: Same State 1)	–	–	–	34.5 nM	210 nM	562 nM
GGAGCCGGCACUGAGGAUAUUCAUAUUAAAACAUGAGGAUCACCCAUGUAGGCCAGAAGGCCUUGGGAGAAGGCGGAUCGGCUCG [Xeonanis - 14] (puzzle: Same State 2)	–	–	–	78.7 nM	181 nM	1070 nM
UUGUUUCGUCAUUAACAUGAGGAUCACCCAUGUAAAGGAGCAGAGGAUAUGCAUGUUUGAUUGUAGCAGAAGGCUGAUUGUUGU [JR_SSNG3_Sub034] (Eterna round: R96, puzzle: Same State NG 3)	32.6 nM	27.9 nM	31.9 nM	–	–	–
CGUCCGGCCUGUGCUGGCCGGUAGCUUGUACAUGAGGAUCACCCAUGUUCAUGUGCUGGCUUUUUGCUCGUCUUGUG [salish99_mir208a_017] (puzzle: Sensor for hsa-mir-208a)	–	–	–	283 nM	27.2 nM	419 nM
UUUAUACAUGAGGAUCACCCAUGUCAAUGUAGUCGAGGAUAUGGGCAGCCGUGAGGCGUACUAGAAGGCGAAGAGG [JL-ss1-3.09 ViennaUCT mod] (puzzle: Same State 1)	–	–	–	–	117 nM	–
GUGUAUAGCCUCGAGGAUAUCCUGUAAUGCACAUGAGGAUCACCCAUGUAUGAGCGAGUUUUUUGGGAGAAGGCGAGUUAUCGGU [JR_SS002_Sub1709] (Eterna round: R96, puzzle: Same State 2)	–	18 nM	–	–	–	–
AGCCGAGACACAGGAUAUACAUGUUUACAUGAGGAUCACCCAUGUAGCAACACGUGGUAGUGAUUGUAGAAGGGUGCUCGGCGC [Omei SS(NG)2 Cv12] (Eterna round: R96, puzzle: Same State NG 2)	15.8 nM	12.6 nM	23.3 nM	–	–	–
GUUACAUGAGGAUCACCCAUGUAUGUGUGGGAGUAAGUGUCUUAGGAUAUCUAUGAUUUAAGUUAAGAGAAGGAAGAUUGUUGU [JMF's solution 80] (Eterna round: R96, puzzle: Same State NG 3)	118 nM	89.5 nM	114 nM	–	–	–
GCCAUCCAGUGAGGAUAUGGCACCGAAACGGUGCCAGAAGGCAUGUCAAUUGACAUGAGGAUCACCCAUGUAUUAUGGAUGGCA [Mat - Same State NG 1 - JL mod - D85] (Eterna round: R96, puzzle: Same State NG 1)	102 nM	694 nM	695 nM	–	–	–
CUGAGAAGUCAAGGAUAUCACGUCGAUUAGACGUGAGAAGGUGAUCAUUACAUGAGGAUCACCCAUGUGUUACAUGGAGCUCAG [Brourd's SSNG1/1-A2 mod 6] (Eterna round: R96, puzzle: Same State NG 1)	703 nM	124 nM	938 nM	–	–	–
GGAGAGAGAGCGGAGGAUAUUCAAGGAGAGACAUGAGGAUCACCCAUGUAAGAGAGAGAGGAGAGGGAGAAGGCUGAGAGAGAGG [Altered State 2-11 - Jieux - Same State 2] (puzzle: Same State 2)	–	–	–	25.1 nM	25.9 nM	27.2 nM
GCGGAACCUGACAUGAGGAUCACCCAUGUUCCGGAAACGGCACAGGAUAUCUGUCCGAAAAGGUCAGAGAAGGGUGAAAACCGC [Fiskers NG3ss - 96] (Eterna round: R96, puzzle: Same State NG 3)	269 nM	714 nM	719 nM	–	–	–
UUAAUGAAGUAAGGAUAUACAUGAGGAUUUCUCGUAGAAGGUACUAUACAUGAGGAUCACCCAUGUGCCGGUCAGAAGACUGGA [Mat - Same State NG 1 - JL mod - D10] (Eterna round: R96, puzzle: Same State NG 1)	–	301 nM	–	–	–	–
